Source: patent publication US20240301043A1 (Q32 BIO, published 2024)
Like-named read-outs stand apart in the source and are kept apart here.

Tests used:
human C3d [1] = target: T1, human C3d (human, UniProt P01024 1002-1303); assay: ELISA, human C3d coated on plate
T1 construct: domain: C3d; also called C3d antigen

human C3d [2] = target: T1, human C3d; assay: SPR (Biacore 3000), human C3d amine-coupled to CM5 chip, construct as analyte
human C3d [3] = target: T1, human C3d; assay: ELISA, human C3d coated on plate; remark: listed apart in the source
human C3d [4] = target: T1, human C3d; assay: ELISA, human C3d coated on plate; remark: listed apart in the source

T1 sequence (P01024 1002-1303 limits assumed): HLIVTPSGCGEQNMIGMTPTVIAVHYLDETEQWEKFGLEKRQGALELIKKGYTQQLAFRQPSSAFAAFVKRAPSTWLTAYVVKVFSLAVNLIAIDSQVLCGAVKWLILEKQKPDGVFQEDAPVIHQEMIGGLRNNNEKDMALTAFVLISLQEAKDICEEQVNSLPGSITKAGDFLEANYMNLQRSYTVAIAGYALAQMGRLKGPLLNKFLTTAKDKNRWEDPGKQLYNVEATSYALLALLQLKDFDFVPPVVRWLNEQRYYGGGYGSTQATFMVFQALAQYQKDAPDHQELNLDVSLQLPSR

| Binder | EC50 (human C3d [1]) | Kd (human C3d [2]) | EC50 (human C3d [3]) | EC50 (human C3d [4]) |
| --- | --- | --- | --- | --- |
| Exemplary anti-C3d construct 55 (antibody, mouse IgG1, kappa, V domains shown, also called Exemplary construct 55) VH: EVQLQQSGPVLVKPGASVKMSCKASGYTFTAYYMNWVRQSHGKSLEWIGVINPYNGGTSYNQKFKGKATLTVDKSSSTAYMELNSLTSEDSAVYYCSSPYWGQGTSVTVSS VL: not shown | 0.24 nM |  |  |  |
| Exemplary anti-C3d construct 56 (Fab) (Fab, V domains shown, also called Exemplary construct 56) VH: EVQLQQSGPVLVKPGASVKMSCKASGYTFTAYYMNWVRQSHGKSLEWIGVINPYNGGTSYNQKFKGKATLTVDKSSSTAYMELNSLTSEDSAVYYCSSPYWGQGTSVTVSS VL: not shown | 0.55 nM | 0.91 nM |  |  |
| Exemplary anti-C3d construct 34 (antibody, mouse IgG1, kappa, V domains shown, muHC2 murine IgG1 heavy chain and muLC2 murine kappa light chain; also called Exemplary construct 34) VH: EVQLQQSGPVLVKPGASVKMSCKASGYTFTAYYMNWVRQSHGKSLEWIGVINPYNGGTSYNQKFKGKATLTVDKSSSTAYMELNSLTSEDSAVYYCSSPYWGQGTSVTVSS VL: not shown | 0.32 nM | 0.888 nM |  |  |
| Exemplary anti-C3d construct 74 (antibody, V domains shown, Humanized 3d8b VH4 / VK3; also called Exemplary construct 74) VH: QVQLVQSGAEVKKPGASVKVSCKASGYTFTNYYINWVRQAPGQGLEWIGVINPYNGGTSYNQKFKGRATLTVDTSTSTAYMELSSLRSEDTAVYFCSSPYWGQGTLVTVSS VL: DVVMTQSPLSLPVTLGQPASISCKSSQSLLDSDGKTYLNWFQQRPGQSPRRLIYLVSKLDSGVPDRFSGSGSGTDFTLKISRVEAEDVGVYYCWQGTHFPRTFGGGTKVEIK |  | 1.34 nM | 0.017 nM |  |
| Exemplary anti-C3d construct 93 (antibody, human IgG4 S228P, kappa, V domains shown, also called Exemplary construct 93) VH: QVQLVQSGAEVKKPGASVKVSCKASGYTFTNYYINWVRQAPGQGLEWMGVINPYSGGTSYNQKFKGRVTMTVDTSTSTAYMELSSLRSEDTAVYFCSSPYWGQGTLVTVSS VL: DVVMTQSPLSLPVTLGQPASISCKSSQSLLDSDGKTYLNWFQQRPGQSPRRLIYLVSKLDSGVPDRFSGSGSGTDFTLKISRVEAEDVGVYYCWQGTHFPRTFGGGTKVEIKR |  | 10.2 nM |  | 0.02 nM |
| Exemplary anti-C3d construct 87 (antibody, human IgG4 S228P, kappa, also called Exemplary construct 87) heavy: not shown light: DVVMTQSPLSLPVTLGQPASISCKSSQSLLDSDGKTYLNWFQQRPGQSPRRLIYLVSKLDSGVPDRFSGSGSGTDFTLKISRVEAEDVGVYYCWQGTHFPRTFGGGTKVEIKRTVAAPSVFIFPPSDEQLKSGTASVVCLLNNFYPREAKVQWKVDNALQSGNSQESVTEQDSKDSTYSLSSTLTLSKADYEKHKVYACEVTHQGLSSPVTKSFNRGEC |  | 7.57 nM |  | 0.02 nM |
| Exemplary anti-C3d construct 86 (antibody, human IgG4 S228P, kappa, HC1 (VH5) humanized IgG4 S228P/L235E; LC1 (Vk3) humanized kappa; also called Exemplary construct 86) heavy: not shown light: DVVMTQSPLSLPVTLGQPASISCKSSQSLLDSDGKTYLNWFQQRPGQSPRRLIYLVSKLDSGVPDRFSGSGSGTDFTLKISRVEAEDVGVYYCWQGTHFPRTFGGGTKVEIKRTVAAPSVFIFPPSDEQLKSGTASVVCLLNNFYPREAKVQWKVDNALQSGNSQESVTEQDSKDSTYSLSSTLTLSKADYEKHKVYACEVTHQGLSSPVTKSFNRGEC |  | 14.7 nM | 0.03 nM | 0.03 nM |
| Exemplary anti-C3d construct 78 (antibody, V domains shown, Humanized 3d8b VH4 N54S / VK3; also called Exemplary construct 78) VH: QVQLVQSGAEVKKPGASVKVSCKASGYTFTNYYINWVRQAPGQGLEWIGVINPYSGGTSYNQKFKGRATLTVDTSTSTAYMELSSLRSEDTAVYFCSSPYWGQGTLVTVSS VL: DVVMTQSPLSLPVTLGQPASISCKSSQSLLDSDGKTYLNWFQQRPGQSPRRLIYLVSKLDSGVPDRFSGSGSGTDFTLKISRVEAEDVGVYYCWQGTHFPRTFGGGTKVEIK |  |  | 0.018 nM |  |
| Exemplary anti-C3d construct 75 (antibody, V domains shown, Humanized 3d8b VH5 / VK3; also called Exemplary construct 75) VH: QVQLVQSGAEVKKPGASVKVSCKASGYTFTNYYINWVRQAPGQGLEWMGVINPYNGGTSYNQKFKGRVTMTVDTSTSTAYMELSSLRSEDTAVYFCSSPYWGQGTLVTVSS VL: DVVMTQSPLSLPVTLGQPASISCKSSQSLLDSDGKTYLNWFQQRPGQSPRRLIYLVSKLDSGVPDRFSGSGSGTDFTLKISRVEAEDVGVYYCWQGTHFPRTFGGGTKVEIK |  | 1.63 nM | 0.029 nM |  |
| Exemplary anti-C3d construct 77 (antibody, V domains shown, Humanized 3d8b VH5 N54H / VK3; also called Exemplary construct 77) VH: QVQLVQSGAEVKKPGASVKVSCKASGYTFTNYYINWVRQAPGQGLEWMGVINPYHGGTSYNQKFKGRVTMTVDTSTSTAYMELSSLRSEDTAVYFCSSPYWGQGTLVTVSS VL: DVVMTQSPLSLPVTLGQPASISCKSSQSLLDSDGKTYLNWFQQRPGQSPRRLIYLVSKLDSGVPDRFSGSGSGTDFTLKISRVEAEDVGVYYCWQGTHFPRTFGGGTKVEIK |  |  | 0.011 nM |  |
| Exemplary anti-C3d construct 76 (antibody, V domains shown, Humanized 3d8b VH4 N54H / VK3; also called Exemplary construct 76) VH: QVQLVQSGAEVKKPGASVKVSCKASGYTFTNYYINWVRQAPGQGLEWIGVINPYHGGTSYNQKFKGRATLTVDTSTSTAYMELSSLRSEDTAVYFCSSPYWGQGTLVTVSS VL: DVVMTQSPLSLPVTLGQPASISCKSSQSLLDSDGKTYLNWFQQRPGQSPRRLIYLVSKLDSGVPDRFSGSGSGTDFTLKISRVEAEDVGVYYCWQGTHFPRTFGGGTKVEIK |  |  | 0.018 nM |  |
| Exemplary anti-C3d construct 79 (antibody, V domains shown, Humanized 3d8b VH5 N54S / VK3; also called Exemplary construct 79) VH: QVQLVQSGAEVKKPGASVKVSCKASGYTFTNYYINWVRQAPGQGLEWMGVINPYSGGTSYNQKFKGRVTMTVDTSTSTAYMELSSLRSEDTAVYFCSSPYWGQGTLVTVSS VL: DVVMTQSPLSLPVTLGQPASISCKSSQSLLDSDGKTYLNWFQQRPGQSPRRLIYLVSKLDSGVPDRFSGSGSGTDFTLKISRVEAEDVGVYYCWQGTHFPRTFGGGTKVEIK |  |  | 0.02 nM |  |
| Exemplary Fusion Construct 99 (other, Order chain, linker, modulator follows claim 321) heavy: not shown light: DVVMTQSPLSLPVTLGQPASISCKSSQSLLDSDGKTYLNWFQQRPGQSPRRLIYLVSKLDSGVPDRFSGSGSGTDFTLKISRVEAEDVGVYYCWQGTHFPRTFGGGTKVEIKRTVAAPSVFIFPPSDEQLKSGTASVVCLLNNFYPREAKVQWKVDNALQSGNSQESVTEQDSKDSTYSLSSTLTLSKADYEKHKVYACEVTHQGLSSPVTKSFNRGEC |  |  |  | 1.54 nM |
